{"source": "paper PMC3282585", "about": "(Science Signaling, 2011)", "target": "T1, IL17RA-SEFIR (SEFIR domain-containing fragment of human IL17RA, residues 351 to 616) (human, UniProt Q96F46 351-616)", "T1 sequence (looked up)": "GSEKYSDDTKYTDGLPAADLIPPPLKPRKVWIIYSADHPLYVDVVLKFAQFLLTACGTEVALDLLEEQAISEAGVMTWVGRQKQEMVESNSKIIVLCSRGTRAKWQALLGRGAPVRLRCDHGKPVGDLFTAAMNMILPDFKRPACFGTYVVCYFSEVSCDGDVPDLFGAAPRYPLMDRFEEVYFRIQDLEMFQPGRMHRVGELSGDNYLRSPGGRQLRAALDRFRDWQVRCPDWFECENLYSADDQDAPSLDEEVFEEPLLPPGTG", "assay": "SPR"}
{"binder": "LDEDEHGLHTKY", "note": "[CC′ loop peptide of the Act1 SEFIR domain]", "values": [{"measurement": "binding result", "result": "binds"}]}
